This is an account of results in US20060040855A1.

Assay [1] addresses rat LH receptor (rat) (UniProt P16235).
Assay [2] has the same target. This is another data set of the same source.
For assay [3] the target is unchanged. This is another data set of the same source.
For assay [4], the target named is human FSH receptor (human) (UniProt P23945).

In turn, “dghCG (hCG lacking the α-subunit loop 2 oligosaccharide) (from UniProt P01215) (ligand)” returned an Efficacy, cyclic AMP accumulation with rat LH receptor (rat) [1] of 42%. Moreover, in the assay with rat LH receptor (rat) [2], the cyclic AMP accumulation was 40 % of hCG.

In the assay with rat LH receptor (rat) [1], “dgα37-β33 (dg-αY37C/hCGβI33C) (from UniProt P01215) (ligand)” yielded an Efficacy, cyclic AMP accumulation of 24%.

Take “dgα37-β33CF (dg-αY37C/CF101-109βI33C) (from UniProt P01215) (ligand)”: the efficacy in cyclic AMP assays was < 10 % of hCG with rat LH receptor (rat) [3] and < 4 % of hFSH in assay [4].

As for “dgα37-β33CFC (dg-αY37C/CFC101-114βI33C) (from UniProt P01215) (ligand)”, the efficacy in cyclic AMP assays in the assay with rat LH receptor (rat) [3] is < 10 % of hCG; in assay [4], < 4 % of hFSH.
